{
  "source": "patent US20230365956A1",
  "key": {"[1]": {"target": "SARS-CoV-2 RBD, wild type (Sino Biological) (SARS-CoV-2) (UniProt P0DTC2)", "test": "BLI, avidity format: biotinylated RBD on SA sensor, binder in solution"}, "[2]": {"target": "SARS-CoV-2 RBD, wild type (Sino Biological) (SARS-CoV-2) (UniProt P0DTC2)", "test": "BLI, avidity format: response at highest analyte concentration"}, "[3]": {"target": "SARS-CoV-2 RBD, wild type (Sino Biological) (SARS-CoV-2) (UniProt P0DTC2)", "test": "BLI, affinity format: binder on AHC sensor, RBD in solution"}, "[4]": {"target": "SARS-CoV-2 RBD, wild type (Sino Biological) (SARS-CoV-2) (UniProt P0DTC2)", "test": "BLI, affinity format: response at highest analyte concentration"}},
  "note": "pKd: −log10 of the molar value.",
  "data": [
    {"substance": "Cilgavimab (antibody)", "values": [
      {"measurement": "pKd", "setting": "[1]", "value": 9.68},
      {"measurement": "koff", "setting": "[1]", "value": "6.53e-05", "unit": "s⁻¹"},
      {"measurement": "kon", "setting": "[1]", "value": 312000, "unit": "M⁻¹ s⁻¹"},
      {"measurement": "Response", "setting": "[2]", "value": 0.64, "unit": "nm shift"},
      {"measurement": "pKd", "setting": "[3]", "value": 8.40},
      {"measurement": "koff", "setting": "[3]", "value": 0.00172, "unit": "s⁻¹"},
      {"measurement": "kon", "setting": "[3]", "value": 434000, "unit": "M⁻¹ s⁻¹"},
      {"measurement": "Response", "setting": "[4]", "value": 0.397, "unit": "nm shift"}
    ]}
  ]
}
